This series concerns the molecule itself. Description: SEC + native gel or EMSA.

B1: C-terminally truncated Mycobacterium tuberculosis MmpL3 (ΔC Mtb-MmpL3, aa 1–753) (domain or fragment)
chain: MFAWWGRTVYRYRFIVIGVMVALCLGGGVFGLSLGKHVTQSGFYDDGSQSVQASVLGDQVYGRDRSGHIVAIFQAPAGKTVDDPAWSKKVVDELNRFQQDHPDQVLGWAGYLRASQATGMATADKKYTFVSIPLKGDDDDTILNNYKAIAPDLQRLDGGTVKLAGLQPVAEALTGTIATDQRRMEVLALPLVAVVLFFVFGGVIAAGLPVMVGGLCIAGALGIMRFLAIFGPVHYFAQPVVSLIGLGIAIDYGLFIVSRFREEIAEGYDTETAVRRTVITAGRTVTFSAVLIVASAIGLLLFPQGFLKSLTYATIASVMLSAILSITVLPACLGILGKHVDALGVRTLFRVPFLANWKISAAYLNWLADRLQRTKTREEVEAGFWGKLVNRVMKRPVLFAAPIVIIMILLIIPVGKLSLGGISEKYLPPTNSVRQAQEEFDKLFPGYRTNPLTLVIQTSNHQPVTDAQIADIRSKAMAIGGFIEPDNDPANMWQERAYAVGASKDPSVRVLQNGLINPADASKKLTELRAITPPKGITVLVGGTPALELDSIHGLFAKMPLMVVILLTTTIVLMFLAFGSVVLPIKATLMSALTLGSTMGILTWIFVDGHFSKWLNFTPTPLTAPVIGLIIALVFGLSTDYEVFLVSRMVEARERGMSTQEAIRIGTAATGRIITAAALIVAVVAGAFVFSDLVMMKYLAFGLMAALLLDATVVRMFLVPSVMKLLGDDCWWAPRWARRLQTRIGLGEIHLPD
notes: also called Mtb-MmpL3 ΔC; Mtb MmpL3 ΔC
Consider B1, for which the binding result is reported as “binds”.

Values taken from paper PMC11352979, “The mycobacterium lipid transporter MmpL3 is dimeric in detergent solution, SMALPs and reconstituted nanodiscs†” (RSC Chemical Biology, 2024).
